Assay results published in the supplement of paper PMC10065799, “High-throughput profiling of sequence recognition by tyrosine kinases and SH2 domains using bacterial peptide display” (eLife, 2023).

What was measured:
[1] = system: AncSZ; experiment: phosphorylation enrichment, bacterial display (enrichment ratio); higher = better substrate or ligand; peptides without Tyr show the background
[2] = target: EPHB1 (UniProt P54762); experiment: as above
[3] = target: EPHB2 (UniProt P29323); experiment: as above
[4] = target: FGFR1 (UniProt P11362); experiment: as above
Chain of FGFR1 (P11362 whole entry, looked up): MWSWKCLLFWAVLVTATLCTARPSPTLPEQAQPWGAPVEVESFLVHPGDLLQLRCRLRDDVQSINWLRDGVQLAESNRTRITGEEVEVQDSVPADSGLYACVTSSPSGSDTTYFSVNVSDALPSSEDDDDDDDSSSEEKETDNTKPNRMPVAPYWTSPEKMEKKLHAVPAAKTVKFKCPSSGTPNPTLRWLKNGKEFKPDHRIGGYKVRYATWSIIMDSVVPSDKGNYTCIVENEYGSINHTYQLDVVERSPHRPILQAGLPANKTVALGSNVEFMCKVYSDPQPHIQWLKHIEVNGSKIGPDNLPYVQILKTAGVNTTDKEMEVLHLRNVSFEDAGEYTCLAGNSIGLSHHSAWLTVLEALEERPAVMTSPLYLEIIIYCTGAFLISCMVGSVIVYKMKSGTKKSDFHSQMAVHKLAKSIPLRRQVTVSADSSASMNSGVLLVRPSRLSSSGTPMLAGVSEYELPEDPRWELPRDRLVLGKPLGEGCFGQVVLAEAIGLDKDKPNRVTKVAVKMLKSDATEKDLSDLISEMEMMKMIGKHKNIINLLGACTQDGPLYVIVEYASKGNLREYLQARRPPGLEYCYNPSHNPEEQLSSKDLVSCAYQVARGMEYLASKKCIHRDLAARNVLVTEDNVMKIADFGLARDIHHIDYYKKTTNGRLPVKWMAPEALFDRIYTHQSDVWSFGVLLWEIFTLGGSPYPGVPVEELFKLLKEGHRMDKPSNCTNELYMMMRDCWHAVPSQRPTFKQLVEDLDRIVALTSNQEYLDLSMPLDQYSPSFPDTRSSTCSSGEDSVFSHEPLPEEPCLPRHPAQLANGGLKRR

[5] = target: FGFR3 (UniProt P22607); experiment: as above
Chain of FGFR3 (P22607 whole entry, looked up): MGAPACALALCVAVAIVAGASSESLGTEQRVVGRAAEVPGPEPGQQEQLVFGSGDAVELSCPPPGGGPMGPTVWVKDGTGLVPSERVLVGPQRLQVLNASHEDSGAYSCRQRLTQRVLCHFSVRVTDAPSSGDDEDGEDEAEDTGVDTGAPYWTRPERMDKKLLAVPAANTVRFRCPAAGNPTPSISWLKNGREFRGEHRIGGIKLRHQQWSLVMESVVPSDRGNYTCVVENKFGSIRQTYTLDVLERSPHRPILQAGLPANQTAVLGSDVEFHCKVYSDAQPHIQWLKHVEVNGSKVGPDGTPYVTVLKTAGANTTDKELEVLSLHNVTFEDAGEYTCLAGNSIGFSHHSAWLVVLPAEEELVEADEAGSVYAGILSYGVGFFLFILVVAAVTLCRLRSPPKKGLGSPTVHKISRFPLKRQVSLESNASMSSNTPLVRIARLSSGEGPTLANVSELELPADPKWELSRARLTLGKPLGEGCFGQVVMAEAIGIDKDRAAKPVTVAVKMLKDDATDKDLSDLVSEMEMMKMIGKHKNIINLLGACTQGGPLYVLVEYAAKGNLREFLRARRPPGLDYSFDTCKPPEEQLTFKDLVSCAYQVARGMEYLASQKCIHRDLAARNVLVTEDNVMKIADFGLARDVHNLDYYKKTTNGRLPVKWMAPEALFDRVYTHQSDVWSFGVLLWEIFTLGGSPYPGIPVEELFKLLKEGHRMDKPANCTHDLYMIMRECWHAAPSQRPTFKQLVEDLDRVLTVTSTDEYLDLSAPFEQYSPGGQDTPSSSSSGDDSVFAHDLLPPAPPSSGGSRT

[6] = system: Fer (mouse); experiment: as above
[7] = target: Fes (UniProt P07332); experiment: as above
Chain of Fes (P07332 whole entry, looked up): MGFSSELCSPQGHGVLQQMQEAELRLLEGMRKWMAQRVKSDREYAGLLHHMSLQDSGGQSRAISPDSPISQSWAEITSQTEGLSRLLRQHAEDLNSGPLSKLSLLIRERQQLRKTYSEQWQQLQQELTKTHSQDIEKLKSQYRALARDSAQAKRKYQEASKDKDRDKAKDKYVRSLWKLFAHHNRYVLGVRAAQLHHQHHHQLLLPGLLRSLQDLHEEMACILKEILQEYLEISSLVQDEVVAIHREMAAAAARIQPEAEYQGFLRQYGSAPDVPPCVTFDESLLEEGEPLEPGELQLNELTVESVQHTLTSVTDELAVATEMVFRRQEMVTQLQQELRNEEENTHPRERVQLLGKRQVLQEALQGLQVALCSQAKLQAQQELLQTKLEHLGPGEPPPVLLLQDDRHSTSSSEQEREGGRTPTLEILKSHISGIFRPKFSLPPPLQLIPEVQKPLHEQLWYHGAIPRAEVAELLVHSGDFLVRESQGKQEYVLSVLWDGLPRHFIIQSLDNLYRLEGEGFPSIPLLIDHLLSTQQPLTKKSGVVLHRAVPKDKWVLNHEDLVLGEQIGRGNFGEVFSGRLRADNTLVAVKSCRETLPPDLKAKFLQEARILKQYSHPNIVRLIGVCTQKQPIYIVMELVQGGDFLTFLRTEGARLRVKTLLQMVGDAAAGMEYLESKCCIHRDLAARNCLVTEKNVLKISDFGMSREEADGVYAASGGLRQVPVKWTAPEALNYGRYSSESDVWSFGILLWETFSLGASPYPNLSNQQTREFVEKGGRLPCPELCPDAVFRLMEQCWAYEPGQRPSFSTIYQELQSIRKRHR

[8] = target: Fyn (UniProt P06241); experiment: as above
[9] = target: Hck (UniProt P08631); experiment: as above
[10] = target: Jak2 (UniProt O60674); experiment: as above
Chain of Jak2 (O60674 whole entry, looked up): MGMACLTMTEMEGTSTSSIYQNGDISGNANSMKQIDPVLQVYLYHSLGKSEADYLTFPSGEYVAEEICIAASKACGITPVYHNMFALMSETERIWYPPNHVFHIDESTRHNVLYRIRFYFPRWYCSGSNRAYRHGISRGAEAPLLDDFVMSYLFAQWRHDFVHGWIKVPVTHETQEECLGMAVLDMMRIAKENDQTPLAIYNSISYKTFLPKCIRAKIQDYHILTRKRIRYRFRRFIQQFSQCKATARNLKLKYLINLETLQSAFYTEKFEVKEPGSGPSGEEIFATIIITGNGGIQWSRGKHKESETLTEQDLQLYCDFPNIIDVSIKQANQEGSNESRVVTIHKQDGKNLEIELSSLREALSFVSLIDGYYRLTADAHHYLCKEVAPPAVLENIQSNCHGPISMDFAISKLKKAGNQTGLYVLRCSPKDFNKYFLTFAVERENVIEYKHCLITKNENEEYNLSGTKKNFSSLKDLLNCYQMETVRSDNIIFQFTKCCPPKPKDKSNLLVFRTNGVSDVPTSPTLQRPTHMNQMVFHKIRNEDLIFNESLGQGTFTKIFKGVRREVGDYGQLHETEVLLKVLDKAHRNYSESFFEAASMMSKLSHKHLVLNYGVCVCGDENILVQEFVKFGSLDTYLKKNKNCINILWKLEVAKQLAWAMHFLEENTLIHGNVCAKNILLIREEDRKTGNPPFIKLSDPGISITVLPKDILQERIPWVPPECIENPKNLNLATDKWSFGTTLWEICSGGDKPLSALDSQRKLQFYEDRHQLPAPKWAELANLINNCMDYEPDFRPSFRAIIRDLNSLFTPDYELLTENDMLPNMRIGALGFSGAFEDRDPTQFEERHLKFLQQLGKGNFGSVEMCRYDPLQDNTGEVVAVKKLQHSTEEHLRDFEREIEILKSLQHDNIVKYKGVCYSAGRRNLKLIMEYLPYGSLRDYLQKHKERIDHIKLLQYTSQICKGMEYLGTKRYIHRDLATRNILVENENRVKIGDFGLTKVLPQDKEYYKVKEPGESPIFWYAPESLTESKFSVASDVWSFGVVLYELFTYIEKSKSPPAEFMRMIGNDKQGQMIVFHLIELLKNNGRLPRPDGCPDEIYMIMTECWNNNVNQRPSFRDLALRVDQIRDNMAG

[11] = target: MERTK (UniProt Q12866); experiment: as above
Chain of MERTK (Q12866 whole entry, looked up): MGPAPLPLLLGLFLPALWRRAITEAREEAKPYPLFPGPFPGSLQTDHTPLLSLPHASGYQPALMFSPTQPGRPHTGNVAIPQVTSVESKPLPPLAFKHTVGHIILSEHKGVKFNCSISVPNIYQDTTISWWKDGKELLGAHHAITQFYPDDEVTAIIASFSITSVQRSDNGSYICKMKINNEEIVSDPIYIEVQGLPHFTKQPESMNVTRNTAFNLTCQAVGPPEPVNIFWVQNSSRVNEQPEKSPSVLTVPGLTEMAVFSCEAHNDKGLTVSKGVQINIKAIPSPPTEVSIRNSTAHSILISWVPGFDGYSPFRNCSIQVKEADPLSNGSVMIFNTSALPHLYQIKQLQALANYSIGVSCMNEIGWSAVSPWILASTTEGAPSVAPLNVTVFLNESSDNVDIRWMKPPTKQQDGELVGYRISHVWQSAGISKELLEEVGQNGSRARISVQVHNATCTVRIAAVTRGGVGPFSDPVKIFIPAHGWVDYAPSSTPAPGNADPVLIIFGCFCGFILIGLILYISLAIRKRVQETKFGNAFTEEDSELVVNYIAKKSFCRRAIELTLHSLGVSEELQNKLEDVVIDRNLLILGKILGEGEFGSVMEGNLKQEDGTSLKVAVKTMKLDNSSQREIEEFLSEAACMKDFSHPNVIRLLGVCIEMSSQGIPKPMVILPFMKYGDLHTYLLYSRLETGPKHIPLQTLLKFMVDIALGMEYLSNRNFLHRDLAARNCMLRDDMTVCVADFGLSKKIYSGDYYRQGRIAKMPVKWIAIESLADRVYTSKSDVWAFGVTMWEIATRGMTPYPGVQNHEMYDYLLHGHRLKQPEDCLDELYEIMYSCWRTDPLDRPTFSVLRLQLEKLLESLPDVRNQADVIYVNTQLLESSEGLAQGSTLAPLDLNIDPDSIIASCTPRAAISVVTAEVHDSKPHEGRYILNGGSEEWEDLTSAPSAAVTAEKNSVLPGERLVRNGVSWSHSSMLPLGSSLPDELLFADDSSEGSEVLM

[12] = system: c-Abl (mouse); experiment: as above
[13] = system: c-Src; experiment: as above
[14] = target: Grb2 SH2 (UniProt P62993); experiment: SH2 binding enrichment of the phosphorylated peptide, bacterial display (enrichment ratio); higher = better substrate or ligand; peptides without Tyr show the background
Chain of Grb2 SH2 (P62993 whole entry, looked up): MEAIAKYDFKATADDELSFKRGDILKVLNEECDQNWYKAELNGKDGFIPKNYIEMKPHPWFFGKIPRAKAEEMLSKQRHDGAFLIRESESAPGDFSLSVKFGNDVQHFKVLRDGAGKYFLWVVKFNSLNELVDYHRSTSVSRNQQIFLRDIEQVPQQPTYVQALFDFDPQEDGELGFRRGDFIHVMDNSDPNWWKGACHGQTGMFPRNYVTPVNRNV

[15] = target: SHP2-C SH2; experiment: as above
[16] = target: c-Src SH2; experiment: as above
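For SH2 binding enrichment of the phosphorylated peptide, bacterial display in this document: peptide library displayed on the E. coli surface as eCPX fusions, selected cells deep-sequenced, score is each peptide's frequency after selection divided by its frequency in the input.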
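For phosphorylation enrichment, bacterial display in this document: 11-residue human phosphosite peptides and single-mutation variants displayed on the E. coli surface, counted by deep sequencing, each peptide's frequency after selection divided by its frequency in the unselected input library; frequency after pTyr selection over input frequency; kinase dosed for 20-30% of maximal phosphorylation in three min.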

Sequence	phosphorylation enrichment [1]	phosphorylation enrichment [2]	phosphorylation enrichment [3]	phosphorylation enrichment [4]	phosphorylation enrichment [5]	phosphorylation enrichment [6]	phosphorylation enrichment [7]	phosphorylation enrichment [8]	phosphorylation enrichment [9]	phosphorylation enrichment [10]	phosphorylation enrichment [11]	phosphorylation enrichment [12]	phosphorylation enrichment [13]	SH2 binding enrichment [14]	SH2 binding enrichment [15]	SH2 binding enrichment [16]
PQGVRYTFTID [DCX_Y103_I104T_YF]	1.41	0.768	1.04	0.521	1.36	0.796	1.66	0.7	0.642	1.48	0.356	1.55	0.529	0.786	0.729	0.452
MKGDYYRYLAE [YWHAG_Y131]	1.07	1.09	1.02	8.62	6.43	0.501	0.89	0.741	0.779	3.29	0.718	0.686	0.639	0.815	0.568	0.615
AEYGLYGAMVW [VSX2_Y222_R227W]	1.45	1.33	4	0.521	0.86	4.58	1.37	6.22	5.32	1.25	2.66	1.1	4.49	0.62	0.696	0.419
ILGTFYETGSI [PAX2_Y73_R71T_YF]	0.773	0.466	0.541	0.582	0.526	0.749	0.956	0.524	0.621	0.871	0.568	0.587	0.529	0.841	0.837	0.619
EEGNPSFSSAR [MCCC2_Y520_Y520S_YF]	0.682	0.418	0.467	0.388	0.623	0.426	0.876	0.42	0.395	0.826	0.459	0.681	0.433	0.75	0.574	0.462
LPPGEYVVVPS [CAPN1_Y494]	1.7	5.23	3.72	2.83	1.93	0.778	1.45	0.88	0.67	1.32	0.927	1.31	0.641	1.06	0.795	0.789
NTDETYSIDNE [TUBB2B_Y200_C201S]	1.27	0.622	0.632	0.551	0.715	0.63	1.35	0.696	0.694	1.23	0.5	0.886	0.726	0.761	0.547	0.421
KDQGGYTMHQD [MAPT_Y29]	0.754	0.4	0.456	0.512	0.465	0.399	0.793	0.404	0.484	0.542	0.413	0.569	0.385	0.722	0.349	0.451
AVNNFYAAKKT [CCDC178_Y422_D420N]	0.708	0.373	0.352	0.52	0.402	0.369	0.58	0.372	0.428	0.566	0.475	0.542	0.463	0.965	0.745	0.518
ADCRFYTFPQM [GAMT_Y223_A224T_YF]	1.88	1.07	0.813	0.584	0.895	1.99	1.48	0.811	0.534	1.2	5.08	0.784	1.24	1.25	0.717	0.513
QFLMKYVRSAS [ABCD1_Y337_W339R]	0.995	0.673	0.666	0.431	0.873	0.559	1.05	0.605	0.566	1.2	0.476	0.82	0.799	0.517	0.927	0.369
VKMLLYTEVTR [GDI1_Y93]	1.32	3	1.25	0.529	0.883	1.08	1.43	0.759	1.24	1.23	2.58	0.83	0.834	0.869	0.706	0.771
SIKDKYVTAFY [KCNH2_Y611_L615F]	0.578	0.488	0.439	0.483	0.475	0.401	0.67	0.428	0.414	0.523	0.358	0.391	0.383	0.607	0.525	0.461
AESPEHVHMFT [FAM111A_Y511_Y511H_YF]	0.746	0.566	0.569	0.433	0.614	0.431	1.01	0.446	0.447	0.754	0.416	0.661	0.36	0.786	0.54	0.421
RASDFYSQQMA [GBP6_Y334_A331S_YF]	0.755	0.708	0.683	0.444	0.605	0.37	0.682	0.423	0.539	0.688	0.957	0.738	0.675	0.739	0.575	0.649
RLDRSYSYSYS [PEAR1_Y890]	0.655	0.443	0.434	0.594	0.42	0.467	0.597	0.334	0.5	0.374	0.569	0.359	0.42	0.782	1.12	1.41
SVVVPYEPTEV [TP53_Y220_P223T]	0.992	0.725	0.765	0.481	0.742	0.709	1.33	0.522	0.506	1.27	0.578	0.885	0.482	0.66	0.619	0.864

Sequence	phosphorylation enrichment [1]	phosphorylation enrichment [2]	phosphorylation enrichment [3]	phosphorylation enrichment [4]	phosphorylation enrichment [5]	phosphorylation enrichment [6]	phosphorylation enrichment [7]	phosphorylation enrichment [8]	phosphorylation enrichment [9]	phosphorylation enrichment [10]	phosphorylation enrichment [11]	phosphorylation enrichment [12]	phosphorylation enrichment [13]	SH2 binding enrichment [14]	SH2 binding enrichment [15]	SH2 binding enrichment [16]
KKMKCYHVGKV [HARS2_Y151_R150C]	0.579	0.444	0.431	0.395	0.552	0.356	0.723	0.317	0.383	0.588	0.423	0.627	0.408	1.35	0.954	1.12
FPRAWYRRSIA [KIAA1109_Y4272]	0.693	0.394	0.468	0.394	0.381	0.473	0.55	0.405	0.413	0.689	0.473	0.552	0.477	0.801	0.339	0.462
HSGIFYKPESL [L2HGDH_Y103_YF]	1.34	0.793	1.11	1.11	0.934	1.05	1.82	0.642	0.704	2.08	0.934	3.79	1.45	0.641	0.831	0.507
QRKPSYNQLPS [BRCA2_Y71_A75P]	0.886	0.449	0.522	0.557	0.598	0.536	0.767	0.599	0.691	0.72	0.567	1.08	0.682	0.858	0.648	0.423
SMAKFYASGIA [ACADSB_Y373_E376G_YF]	0.738	0.344	0.485	0.428	0.561	0.369	0.636	0.461	0.469	0.677	0.464	0.51	0.352	0.701	1	0.359
GISDEYHVIRH [GCDH_Y398]	0.917	0.458	0.475	4.48	2.26	0.405	0.69	0.64	0.962	0.633	0.339	0.569	0.664	0.827	0.606	0.941
EQFELYCEMGS [CBL_Y371_YF]	1.95	3.34	2.66	1.26	1.54	1	1.68	1.43	2.27	1.39	1.58	1.02	1.49	0.934	0.638	0.46
SFHSSYSEIKD [DCLRE1C_Y322]	0.738	0.435	0.532	0.554	0.681	0.52	0.744	0.512	0.51	0.559	0.57	0.448	0.506	0.982	4.96	22.5
AALVQYFMEHH [PTPN11_Y80_E76A_YF]	0.798	0.623	0.541	0.573	0.727	0.476	1.05	0.439	0.519	0.772	0.401	0.665	0.441	1.34	1.42	0.946
LLREWYLQDPF [SIX3_Y225_YF]	1.43	0.557	0.765	0.941	0.784	0.661	1.73	0.564	0.509	1.52	0.567	1.15	0.788	1.42	2.31	0.978
PTEAQYRFIFM [PTPN11_Y511_Q506P_YF]	1.6	0.876	0.767	1.9	1.21	1.06	1.81	0.939	1.07	1.44	0.702	1.32	0.477	0.585	0.593	0.317
KGPNVYKKTVN [REV3L_Y1156]	0.456	0.307	0.31	0.448	0.391	0.429	0.581	0.313	0.414	0.5	0.362	0.492	0.546	0.633	0.606	0.529
DERQPYVHMNG [IGF1R_Y1346_A1347V]	0.696	0.436	0.5	0.592	0.627	0.446	0.81	0.438	0.471	0.786	0.428	0.503	0.484	0.729	0.704	0.705
SVFNNYIQTLG [CTNND1_Y174_S171F]	0.705	0.835	0.418	0.585	0.528	0.391	0.678	0.442	0.463	0.775	0.411	0.557	0.402	1.05	0.917	0.739
SRASFYRKGGC [ALK_Y1283_Y1278S_YF]	0.702	0.431	0.467	0.381	0.496	0.476	0.627	0.433	0.477	0.615	0.567	0.529	0.575	0.674	0.548	0.433
GHGEEYPVAGA [NOTCH3_Y2221_A2223V]	0.763	0.451	0.424	0.481	0.48	0.408	0.755	0.438	0.421	0.682	0.373	0.592	0.398	0.762	0.621	0.413
